Numbered stars: 1 amine (or outer) side, 2 acyl side, 3 side chain; on linkers, the order of the positions; unused ones are H or OH. Bridge positions count the residues as written; N and C are the ends. Square brackets hold non-standard residues; d marks the D form. Primed or numbered codes have the meaning given here. * marks the point of attachment. Ttds″ = 1,13-diamino-4,7,10-trioxatridecan-succinamic acid spacer, O=C(CCC(=O)[*:2])NCCCOCCOCCOCCCN[*:1]; Ttds = 1,13-diamino-4,7,10-trioxatridecan-succinamic acid, O=C(CCC(=O)[*:2])NCCCOCCOCCOCCCN[*:1]; 3MeBn = 3-Methylbenzylidene (m-xylylene thioether bridge from α,α′-dibromo-m-xylene); Ttds(4) = spacer between chelator and peptide, O=C(CCC(=O)[*:2])NCCCOCCOCCOCCCN[*:1]; N4Ac = 6-Carboxy-1,4,8,11-tetraazaundecane, an N4-chelator, NCCNCC(CNCCN)C(=O)*; DOTA = O=C(O)CN1CCN(CC(=O)O)CCN(CC(=O)*)CCN(CC(=O)O)CC1; mXylylene = c1cc(C[*:1])cc(C[*:2])c1; NMeF = CN[C@@H](Cc1ccccc1)C(=O)O; 4Amb = NCc1ccc(C(=O)O)cc1; Nle = CCCC[C@H](N)C(=O)O; PEG6′ = not defined here; Hexanoyl = CCCCCC(=O)* Where only a bound is given, the exact number is not on record here.

The labels stand for the following.
T1: recombinant human PREP (R&D systems, #4308-SE) (human, UniProt P48147 1-710)
T1 sequence: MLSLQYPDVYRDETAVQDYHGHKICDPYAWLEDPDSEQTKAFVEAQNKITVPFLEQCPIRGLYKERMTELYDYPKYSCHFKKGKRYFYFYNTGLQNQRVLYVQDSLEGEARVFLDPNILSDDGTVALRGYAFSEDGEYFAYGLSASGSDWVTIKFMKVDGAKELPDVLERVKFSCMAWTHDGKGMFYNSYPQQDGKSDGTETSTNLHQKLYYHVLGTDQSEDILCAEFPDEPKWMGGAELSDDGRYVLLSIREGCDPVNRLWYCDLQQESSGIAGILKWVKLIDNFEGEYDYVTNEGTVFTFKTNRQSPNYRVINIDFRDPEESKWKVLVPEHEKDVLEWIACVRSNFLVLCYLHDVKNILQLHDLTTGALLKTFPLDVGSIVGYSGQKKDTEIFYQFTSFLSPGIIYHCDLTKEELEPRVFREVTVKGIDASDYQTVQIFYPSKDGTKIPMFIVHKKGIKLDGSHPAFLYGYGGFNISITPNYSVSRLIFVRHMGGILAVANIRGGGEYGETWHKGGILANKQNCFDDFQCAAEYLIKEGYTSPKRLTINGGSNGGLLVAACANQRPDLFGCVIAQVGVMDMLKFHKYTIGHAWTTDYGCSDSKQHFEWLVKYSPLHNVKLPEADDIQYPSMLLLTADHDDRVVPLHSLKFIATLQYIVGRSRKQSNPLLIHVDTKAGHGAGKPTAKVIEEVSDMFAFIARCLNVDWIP

B1: N4Ac-PEG6-Ttds-Nle-[C(3MeBn)-PPTEFC]-OH (peptide)
peptide: {N4Ac-PEG6′-Ttds(4)}-[Nle]CPPTEFC-OH
modifications: linker 2-8 via 3MeBn
notes: also called 3BP-4780
B2: Hex-[C(tMeBn(GaNOPO-AET))-PPTEFC]-OH (peptide)
peptide: Hexanoyl-CPPTEFC-OH
modifications: linker 1-7 via tMeBn(GaNOPO-AET); also: gallium-NOPO chelator-AET arm on the linker
notes: also called 3BP-4816
B3: Hex-[C(tMeBn(NODAGA-AET))-PPTEFC]-OH (peptide)
peptide: CPPTEFC
modifications: N-term Hex-; Cys1 and Cys7 thioether-bridged by tMeBn(NODAGA-AET); C-term -OH
notes: also called 3BP-4695
B4: Hex-[C(tMeBn(NOPO-AET))-PPTEFC]-OH (peptide)
peptide: Hexanoyl-CPPTEFC-OH
modifications: linker 1-7 via tMeBn(NOPO-AET)
notes: also called 3BP-4818
B5: Hex-[Cys(tMeBn(DOTA-AET))-Pro-Pro-Thr-Gln-Phe-Cys]-Asp-NH2 (peptide)
peptide: Hexanoyl-CPPTQFCD-NH2
modifications: linker 1-7 via tMeBn(DOTA-AET)
notes: also called 3BP-3426
B6: DOTA-Ttds-Nle-[Cys(3MeBn)-Pro-Pro-Thr-Glu-Phe-Cys]-Asp-NH2 (peptide)
peptide: {DOTA}-[Ttds][Nle]CPPTEFCD-NH2
modifications: linker 3-9 via mXylylene
SMILES: CCCC[C@H](NC(=O)CCC(=O)NCCCOCCOCCOCCCNC(=O)CN1CCN(CC(=O)O)CCN(CC(=O)O)CCN(CC(=O)O)CC1)C(=O)N[C@H]1CSCc2cccc(c2)CSC[C@@H](C(=O)N[C@@H](CC(=O)O)C(N)=O)NC(=O)[C@H](Cc2ccccc2)NC(=O)[C@H](CCC(=O)O)NC(=O)[C@H]([C@@H](C)O)NC(=O)[C@@H]2CCCN2C(=O)[C@@H]2CCCN2C1=O
notes: also called 3BP-3320
B7: Hex-[Cys(3MeBn)-Pro-Pro-Thr-Gln-Phe-Cys]-Asp-NH2 (peptide)
peptide: Hexanoyl-CPPTQFCD-NH2
modifications: linker 1-7 via mXylylene
SMILES: CCCCCC(=O)N[C@H]1CSCc2cccc(c2)CSC[C@@H](C(=O)N[C@@H](CC(=O)O)C(N)=O)NC(=O)[C@H](Cc2ccccc2)NC(=O)[C@H](CCC(N)=O)NC(=O)[C@H]([C@@H](C)O)NC(=O)[C@@H]2CCCN2C(=O)[C@@H]2CCCN2C1=O
B8: DOTA-Ttds-Nle-[Cys(3MeBn)-Pro-Pro-Thr-Glu-Phe-Cys]-Asp-Pamb-Arg-NH2 (peptide)
peptide: {DOTA}-[Ttds][Nle]CPPTEFCD[4Amb]R-NH2
modifications: linker 3-9 via mXylylene
SMILES: CCCC[C@H](NC(=O)CCC(=O)NCCCOCCOCCOCCCNC(=O)CN1CCN(CC(=O)O)CCN(CC(=O)O)CCN(CC(=O)O)CC1)C(=O)N[C@H]1CSCc2cccc(c2)CSC[C@@H](C(=O)N[C@@H](CC(=O)O)C(=O)NCc2ccc(C(=O)N[C@@H](CCCNC(=N)N)C(N)=O)cc2)NC(=O)[C@H](Cc2ccccc2)NC(=O)[C@H](CCC(=O)O)NC(=O)[C@H]([C@@H](C)O)NC(=O)[C@@H]2CCCN2C(=O)[C@@H]2CCCN2C1=O
notes: also called 3BP-3321
B9: Hex-[Cys(3MeBn)-Pro-Pro-Thr-Glu-Phe-Cys]-Asp-His-Nmf-Arg-Ttds-Lys(DOTA)-NH2 (peptide)
peptide: Hexanoyl-CPPTEFCDH[NMeF]R[Ttds″]K(DOTA)-NH2
modifications: linker 1-7 via mXylylene
SMILES: CCCCCC(=O)N[C@H]1CSCc2cccc(c2)CSC[C@@H](C(=O)N[C@@H](CC(=O)O)C(=O)N[C@@H](Cc2c[nH]cn2)C(=O)N(C)[C@@H](Cc2ccccc2)C(=O)N[C@@H](CCCNC(=N)N)C(=O)NCCCOCCOCCOCCCNC(=O)CCC(=O)N[C@@H](CCCCNC(=O)CN2CCN(CC(=O)O)CCN(CC(=O)O)CCN(CC(=O)O)CC2)C(N)=O)NC(=O)[C@H](Cc2ccccc2)NC(=O)[C@H](CCC(=O)O)NC(=O)[C@H]([C@@H](C)O)NC(=O)[C@@H]2CCCN2C(=O)[C@@H]2CCCN2C1=O
notes: also called 3BP-3275
B10: N4Ac-PEG6-Nle-[Cys-(3MeBn)-Pro-Pro-Thr-Glu-Phe-Cys]-OH (peptide)
peptide: N4Ac-[PEG6′][Nle]CPPTEFC-OH
modifications: linker 3-9 via 3MeBn
notes: also called 3BP-4221

The target in one assay is T2, human fibroblast activating protein (FAP) on WI-38 fibroblasts (human, UniProt Q12884 1-760).
T2 construct: FAP-expressing human WI-38 fibroblasts (ECACC)
Put plainly: competitive FACS on WI-38 cells vs 3 nM Cy5-labeled peptide; pIC50 category B = 7.1-8.0.
As to B1, the pIC50 lay within 7.1 to 8 pic50.

B2: the pIC50 lay within 7.1 to 8 pic50.

B3 had a pIC50 of 7.1 to 8 pic50.

Turning to B4, the pIC50 fell in the range of 7.1 to 8 pic50.

The next assay deals with T3, Recombinant human FAP (R&D systems, #3715-SE) (human, UniProt Q12884 26-760).
T3 construct: bought; in SPR captured on immobilized anti-FAP antibody MAB3715; also called rhFAP; human recombinant FAP
Put plainly: SPR (Biacore T200), FAP captured on anti-FAP antibody, single cycle kinetics. Background: Surface plasmon resonance follows binding to a sensor surface in real time, without labels.
Regarding B5, the “pKD Category” value is above 8 pKD.

As for B6, the “pKD Category” value is above 8 pKD.

As for B7, the “pKD Category” value is above 8 pKD.

As for B8, the “pKD Category” value is above 8 pKD.

Consider B9, for which the “pKD Category” value is above 8 pKD.

On to B10, for which the “pKD Category” value was above 8 pKD.

The target of another assay is T4, human fibroblast activation protein (FAP) on WI-38 fibroblasts (human, UniProt Q12884 1-760).
T4 construct: FAP-expressing human WI-38 fibroblasts (ECACC)
Put plainly: competitive FACS, WI-38 cells, Cy5-labeled peptide as competitor; B = pIC50 7.1 to 8.0.
With B10, the pIC50 was 7.1 to 8 pic50.

For another assay, the target named is T1, recombinant human PREP (R&D systems, …). In words: cell-based or functional assay.
Consider B5, for which the “pIC50 (PREP)” value is below 6 pIC50.

Regarding B6, the “pIC50 (PREP)” value is below 6 pIC50.

B7: the “pIC50 (PREP)” value was below 6 pIC50.

Consider B8, for which the “pIC50 (PREP)” value is below 6 pIC50.

Turning to B9, the “pIC50 (PREP)” value is below 6 pIC50.

The next assay deals with Recombinant human DPP4 (R&D systems, #9168-SE) (human, UniProt P27487 29-766). In words: cell-based or functional assay.
Chain of Recombinant human DPP4 (R&D systems, #9168-SE) (P27487 29-766 limits assumed): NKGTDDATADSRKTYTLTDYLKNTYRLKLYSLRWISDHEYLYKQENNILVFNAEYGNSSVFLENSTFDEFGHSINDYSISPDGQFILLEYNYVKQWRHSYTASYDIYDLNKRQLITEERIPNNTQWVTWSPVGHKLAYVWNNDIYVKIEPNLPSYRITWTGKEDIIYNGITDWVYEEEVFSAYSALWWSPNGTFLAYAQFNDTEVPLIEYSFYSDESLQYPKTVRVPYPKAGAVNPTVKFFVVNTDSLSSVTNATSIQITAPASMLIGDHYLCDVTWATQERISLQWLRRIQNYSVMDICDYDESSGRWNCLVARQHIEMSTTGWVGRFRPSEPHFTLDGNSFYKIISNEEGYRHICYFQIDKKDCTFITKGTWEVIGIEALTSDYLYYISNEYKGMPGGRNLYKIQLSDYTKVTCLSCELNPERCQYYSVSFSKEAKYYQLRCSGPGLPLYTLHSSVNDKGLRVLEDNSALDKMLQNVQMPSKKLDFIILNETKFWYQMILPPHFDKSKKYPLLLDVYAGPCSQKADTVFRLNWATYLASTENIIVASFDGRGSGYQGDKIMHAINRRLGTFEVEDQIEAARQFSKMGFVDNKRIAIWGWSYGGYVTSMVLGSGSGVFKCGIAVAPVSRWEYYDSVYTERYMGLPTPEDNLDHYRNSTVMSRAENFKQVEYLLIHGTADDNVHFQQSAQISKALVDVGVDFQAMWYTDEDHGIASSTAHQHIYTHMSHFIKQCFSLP
Turning to B5, the “pIC50 (DPP4)” value is below 6 pIC50.

Take B6: the “pIC50 (DPP4)” value was below 6 pIC50.

For B7, the “pIC50 (DPP4)” value was below 6 pIC50.

Turning to B8, the “pIC50 (DPP4)” value is below 6 pIC50.

Turning to B9, the “pIC50 (DPP4)” value was below 6 pIC50.

(Values after patent US20230212549A1 (3B PHARMACEUTICALS, published 2023).)
